The results in this text go back to patent US20190076445A1 (UNIVERSITY OF CINCINNATI, published 2019).

The target of the assay is T1, human FcϵRIα (human, UniProt P12319 26-257).
T1 construct: whole, on cells; also called huFcϵRIα
T1 sequence (looked up): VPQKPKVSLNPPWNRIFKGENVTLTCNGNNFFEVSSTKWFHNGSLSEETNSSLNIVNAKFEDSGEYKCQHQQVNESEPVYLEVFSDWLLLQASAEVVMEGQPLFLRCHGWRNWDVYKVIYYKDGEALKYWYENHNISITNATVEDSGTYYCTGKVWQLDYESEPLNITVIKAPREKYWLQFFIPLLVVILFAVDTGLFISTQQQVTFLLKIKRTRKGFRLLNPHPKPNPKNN
Nature of the assay: summary of Examples 1-7 (huFcϵRIα mice, peritoneal mast cells, flow cytometry). A general note: Flow cytometry measures light scatter and fluorescence of single cells or particles in a stream.

B1: IB10 (antibody, V domains shown)
VH: QVQLQQPGAELVRPGASVKLSCKASGYSFTSYWMNWVNQRPGQGLEWIGMIHPSDSETRLNPNFKDRATLTVDKSSSTAYMQLSSPTSEDSAVYYCARGSLYDGYLFLYWGQGTLVTVSA
VL: DIVMTQSPLSLPVSLGDQASISCRSSQSILHSNGDTYLEWYLQKPGQSPKLLIYKVSNRFSGVPDRFSGSGSGTDFTLKISRVEAEDLGVYYCFQGSYVPFTFGSGTKLEIKR
notes: mAb from a hybridoma (ATCC PTA-125116); also called anti-FcϵRIα monoclonal antibody IB10; anti-huFcϵRIα mAb
In the case of B1, the binding result is given as “binds”.

B2: IE7 (antibody, mouse IgG1, V domains shown)
VH: QVQLQESGGDVVKPGGSLKLSCAASGFTFSFYGMSWVRQTPDKKLEWVATISGGGNYTYYPDSVKGRFTISRDNAMNTLYLQMNSLKSEDTAMYYCVRAYYGNWNSYWGQGTLVTVS
VL: DIVMTQTPSSMYASLGERVTITCKASQDINNYLSWFQQKPGRSPKTLIYRANRLMDGVPSRIRGSGSGQDYSLTISSLEYEDMGIYYCLLYNEFPWMFGGGTKLEIKR
notes: Mouse IgG1 mAb from a hybridoma (ATCC PTA-125115); also called anti-FcϵRIα monoclonal antibody IE7; anti-huFcϵRIα mAb
As for B2, the binding result was “binds”.
